This is an account of results in the supplement of paper PMC12042874.

± gives the uncertainty stated by the source.

The data set can be described thus: amyloid nucleation score (Sup35N fusion, yeast selection) (log enrichment); library NNK1; higher = more nucleation; inactive = no reads after selection. In a few lines: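 Nucleation score is defined as the DiMSum log enrichment of output over input reads, with centring on the mode score of non-aggregating sequences. A minimum of 100 input reads was required for each sequence. Reads came from Illumina sequencing of plasmid inserts from psi-negative yeast expressing Sup35N fused to peptides of 20 random codons, induced with 100 μM copper sulfate for 24 hours and grown 7 days at 30°C on medium lacking adenine and uracil.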
LIHLMRRNAAKTPGAQRDN showed an amyloid nucleation score of 0.947 ± 0.7.
The same measure for LIKSMDFLGRM: 0.117 ± 0.69.
The same measure for LIMILGIRDHLTNCGGKVLQ: 2.03 ± 0.3; for LIMNFGGRLRVAGFGVLVMD: 2.09 ± 0.15.
Regarding LIRLMSQ, the amyloid nucleation score turned out to be 1.83 ± 0.24.
The same measure for LISGVS: “inactive”; for LISVCRFLAIILFRTFA: 0.365 ± 0.69; for LITLAFVVSCVSYSRGSKRR: 1.26 ± 0.17.
LIYRVPIDLITNSNSALRCA gave an amyloid nucleation score of -0.018 ± 0.48.
The same measure for LKCLLKHGFTRNG: -2.08 ± 2.7.
LKDRGYQKYFNSGLIGCNAS gave an amyloid nucleation score of -0.096 ± 0.47.
Regarding LKEFISCGPGCINWLHGKDW, the amyloid nucleation score was -0.519 ± 0.37.
Take LKFMSPSLSTIDRDIK: the amyloid nucleation score was determined as 0.156 ± 0.27.
The value for LKFSVFVKASPCTIRRS was -0.218 ± 0.5; that for LKGRYDIKNY was “inactive”.
The value for LKICLIGTNCMSNV was -0.234 ± 0.78.
In turn, LKLLINGY gave an amyloid nucleation score of -0.333 ± 0.59.
Turning to LKPLRKFRSNVNMR, the amyloid nucleation score entry is “inactive”.
LKSIPNCFRHFYVNTFS showed an amyloid nucleation score of -0.923 ± 0.49.
The value for LKSTEWSGRGFQ was 0.862 ± 0.19.
LKSWVLYYFM yielded an amyloid nucleation score of 1.03 ± 0.35.
Turning to LKSYSTFVIRMNWLGDEGEL, the amyloid nucleation score is -0.874 ± 0.8.
The same measure for LLALRPASNKWNAYQTLTEP: -0.462 ± 0.57; for LLCARCRMSVSEFPNPGVSY: “inactive”; for LLCLCESRVARYTWACHSWY: -0.366 ± 0.3.
The value for LLCLLYHAGGTKRGYTTWAS was -0.133 ± 1.2.
The value for LLFIAG was 0.386 ± 0.66; that for LLGDKLV was -0.096 ± 0.46.
In turn, LLGVGCNRIDWLNGAKN showed an amyloid nucleation score of 2.04 ± 0.49.
Turning to LLGVLWFKVSCGARAQLGIW, the amyloid nucleation score was -0.197 ± 1.9.
The value for LLGYPSRLRPRYDFLPPGGM was 0.014 ± 0.99; that for LLHHYGGYELVSDWTIAKF was 0.364 ± 0.31.
The same measure for LLLGYVKSSLPIVGYSRMEG: 0.548 ± 0.35.
In turn, LLLLCMDARRKRYSSMSACS displayed an amyloid nucleation score of 1.02 ± 0.53.
The value for LLQAQHSF was 0.208 ± 0.21; that for LLQVWYFFR was 0.296 ± 0.66.
The same measure for LLRVLFFCFSMRCRVGISVA: 0.86 ± 0.69; for LLSIKSKSVFLASYCNILST: 2.71 ± 0.17.
The value for LLSLNEMYMTLMGGTVPRVG was -0.076 ± 0.56; that for LLTMFLFNGSKYFLH was 2.3 ± 0.2.
As for LLVGKMCRWNMSYVG, the amyloid nucleation score was -0.063 ± 0.28.
Consider LLVLMYNCFAIYKNWIF, for which the amyloid nucleation score turned out to be 0.209 ± 1.2.
The value for LLVSFTENNRPDLILQSHLM was -1.2 ± 1.2; that for LLVSTVRVNGQI was -0.016 ± 0.42; that for LLWDCVNLEGIEQFYCPHSD was 0.382 ± 0.44.
The value for LLYIRVADSRPGDLRWLSEV was -0.106 ± 0.5; that for LLYYASVLRMKGTECPDGGD was -0.856 ± 2.4.
The value for LMGMRPFELHRRRGHGHVLG was -0.019 ± 0.64; that for LMGSRAGSLTQLIESNTKER was -0.748 ± 1.1; that for LMHASHFFVGKMFLL was 0.266 ± 0.28.
In the case of LMKYWYDVHRNESGITSNNI, the amyloid nucleation score is -1.26 ± 0.42.
The same measure for LMLGKLWFPGMCYESKWELG: -0.181 ± 1; for LMLTGRD: -0.462 ± 1.2.
The value for LMPLLS was 0.025 ± 0.36.
For LMQVVGTVGGRQCTVGWFGV, the amyloid nucleation score was -0.523 ± 0.66.
The same measure for LMWDIWVSYGGAKMSDWSKG: -0.225 ± 0.31.
Take LMWVNLTSVFVRMD: the amyloid nucleation score turned out to be 0.14 ± 0.31.
The value for LMWWGMNDSR was -0.025 ± 0.28.
